Test results taken from US20180021429A1, “ANTICANCER AGENTS OR ANTIMETASTATIC AGENTS USING FSTL1 AND COMBINATION DRUG THEREOF” (PHARMA FOODS INTERNATIONAL CO., LTD., priority 2015, published 2018).

Legend:
[1] = system: mouse colorectal cancer CT26 cells; assay: In vivo, mouse colorectal cancer CT26 cell-transplanted model (Example 20); conditions: intraperitoneal 10 mg/kg on days 4 and 7
Experimental: (§1) Procedures and methods of the experiment were basically performed under substantially the same conditions as in the bone metastasis model experiments of Examples 17 to 19 except that bone metastasis was not evaluated. Specifically, drug efficacy evaluation was conducted using mouse tumor models other than Snail-positive tumor bone metastasis models. The drug efficacy of the anti-FSTL1 antibody was evaluated using cancer-bearing models of BALB/c mice different in strain from the C57BL/6 mice used in the preceding tests. The test was conducted by changing only the amount of tumor implanted, antibody administration timing, and assay timing. • Day 0: transplantation of tumor cells (5×10^5 cells subcutaneously & 5×10^5 cells intravenously) Days 4 and 7: intraperitoneal administration of the antibody (10 mg/kg) • Day 14: drug efficacy evaluation (subcutaneous tumor growth (FIG. 44A) and lung metastasis (FIG. 44B))
For lung metastasis, the number of metastatic nodules in the lung was macroscopically counted. The tumor volumes of the mice were measured 7, 11, and 14 days after tumor implantation.
as §1, with “intravenously) •” for “intravenously)”, “76A)” for “44A)”, “76B))” for “44B))”

mouse melanoma B16-F10 = assay: In vivo, mouse melanoma B16-F10 (Example 22)
Experimental: The drug efficacy of the anti-FSTL1 antibody was evaluated according to Examples 17 to 20 using other cancer-bearing models of C57BL/6 mice of the same strain as in Snail-positive tumor bone metastasis models. The “mouse melanoma B16-F10” is a parent line of the cell line forced to express Snail, which was transplanted in the bone metastasis models used in the preceding tests.
1. Experiment Group (n=5) • 1. Mouse melanoma B16-F10+control IgG (anti-DNP mAb) • 2. Mouse melanoma B16-F10+anti-FSTL1 mAb (#6-55)
• Day 0: transplantation of tumor cells (1×10^6 cells subcutaneously & 1×10^6 cells intravenously) • Day 3: intraperitoneal administration of the antibody (first dose, corresponding to 200 μg/mouse=10 mg/kg) • Day 6: intraperitoneal administration of the antibody (second dose, corresponding to 200 μg/mouse=10 mg/kg) • Day 15 various immunological assays
• Effects on the growth of subcutaneous tumor (calculation of tumor volume by tumor size measurement): measured 6, 10, and 14 days after tumor implantation (FIG. 46A) • Effects on weight loss (FIG. 46B)
• Effects on the growth of subcutaneous tumor (calculation of tumor volume by tumor size measurement): measured 6, 10, and 14 days after tumor implantation (FIG. 78A) • Effects on weight loss (FIG. 78B)

[2] = system: Panc1, Panc1-snail+, MIAPaCa, MDA231, Hs294T; assay: Proliferative capacity and invasive capacity of various human tumor cells; assay type: cell-based; conditions: particularly in highly metastatic tumor cell line highly expressing Snail
Text: (§2) Specifically, the influence of the anti-FSTL1 antibody on proliferative capacity and invasive capacity was studied using various human tumor cells, regardless of the presence or absence of the expression of Snail or FSTL1. […] After culture for 3 days, the number of cells per culture system was counted to evaluate the proliferative capacity of the cells. […] Then, the number of cells that permeated the membranes was counted under a microscope to evaluate the invasive capacity of the cells.
as §2

B1: #6-55: chicken-mouse chimeric anti-FSTL1 antibody clone; variable regions SEQ ID NO: 783 (light), 785 (heavy) (antibody, V domains shown)
VH: AVTLDESGGGLQTPGGALSLVCKGSGFTFTSVTMQWVRQAPGKGLEWVASVCSGSSTYYAPAVKGRATISRDNGQSTVRLQLSNLRPEDTGTYYCAKIAGRARWSCTSAAYNIDAWGHGTEVIVSS
VL: ASTQPSSVSAIPGETVKITCSGGGNNYGWYQQRSPGSAPVTVIYYNDNRPSNIPSRFSGSTSGSTSTLTITGVQADDEAIYYCGSWDSNTDSGIFGAGTTLTVL
modifications: mouse constant regions
Question: B1 was tested. Which “growth of CT26 subcutaneous tumor” value ([1]; BALB/c mice) did it give?
Answer: Its value is “very strongly suppressed”.

Question: And the “lung metastasis of CT26 tumor” value ([1]; BALB/c mice, day 14)?
Answer: The value was “very strongly suppressed”.

Question: And the “mice in which solid tumor disappeared” value ([1]; n=5)?
Answer: The value was “three out of the five mice”.

Question: What about the weight loss (mouse melanoma B16-F10; intraperitoneal 10 mg/kg on days 3 and 6) of the same molecule?
Answer: The weight loss was “suppressive activity against weight loss was also exhibited”.

Question: And the subcutaneous tumor growth (mouse melanoma B16-F10; intraperitoneal 10 mg/kg on days 3 and 6, vs control antibody)?
Answer: The subcutaneous tumor growth was “strongly suppressed”.

Question: What about the invasive capacity ([2]; Matrigel-coated transwell chamber, 4 hours) of the same molecule?
Answer: Its invasive capacity is “strongly suppressed”.

Question: What about the proliferative capacity ([2]; antibody 5 μg/ml, 3 days) of the same molecule?
Answer: Its proliferative capacity is “strongly suppressed”.
